Data from publication doi:10.1101/2023.01.17.524225 (bioRxiv, 2023).
Primed or numbered codes have the meaning given here. No end group written: not given here. FITC′ = not defined here

Molecular target: T1, GID4 (aa 116-300) (human, UniProt Q8IVV7 116-300)
T1 sequence: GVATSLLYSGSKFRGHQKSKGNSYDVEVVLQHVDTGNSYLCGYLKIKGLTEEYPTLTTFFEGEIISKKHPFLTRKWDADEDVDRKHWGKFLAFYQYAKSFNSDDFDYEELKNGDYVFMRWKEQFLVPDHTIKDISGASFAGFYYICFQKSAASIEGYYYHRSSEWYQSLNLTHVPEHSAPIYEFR
Test: fluorescence polarisation

**Q.** Does PGLWKS-{FITC′} [C-terminally FITC-labelled PGLWKS peptide] bind?
**A.** binds
